# Measured values taken from patent US20150098945A1 (Daiichi Sankyo, published 2015).
# Where a chain is given by its changes, count along the chain named.
# T1: human ROBO2 (pCI-hROBO2-transfected HEK293 cells) (human)
# T1 chain: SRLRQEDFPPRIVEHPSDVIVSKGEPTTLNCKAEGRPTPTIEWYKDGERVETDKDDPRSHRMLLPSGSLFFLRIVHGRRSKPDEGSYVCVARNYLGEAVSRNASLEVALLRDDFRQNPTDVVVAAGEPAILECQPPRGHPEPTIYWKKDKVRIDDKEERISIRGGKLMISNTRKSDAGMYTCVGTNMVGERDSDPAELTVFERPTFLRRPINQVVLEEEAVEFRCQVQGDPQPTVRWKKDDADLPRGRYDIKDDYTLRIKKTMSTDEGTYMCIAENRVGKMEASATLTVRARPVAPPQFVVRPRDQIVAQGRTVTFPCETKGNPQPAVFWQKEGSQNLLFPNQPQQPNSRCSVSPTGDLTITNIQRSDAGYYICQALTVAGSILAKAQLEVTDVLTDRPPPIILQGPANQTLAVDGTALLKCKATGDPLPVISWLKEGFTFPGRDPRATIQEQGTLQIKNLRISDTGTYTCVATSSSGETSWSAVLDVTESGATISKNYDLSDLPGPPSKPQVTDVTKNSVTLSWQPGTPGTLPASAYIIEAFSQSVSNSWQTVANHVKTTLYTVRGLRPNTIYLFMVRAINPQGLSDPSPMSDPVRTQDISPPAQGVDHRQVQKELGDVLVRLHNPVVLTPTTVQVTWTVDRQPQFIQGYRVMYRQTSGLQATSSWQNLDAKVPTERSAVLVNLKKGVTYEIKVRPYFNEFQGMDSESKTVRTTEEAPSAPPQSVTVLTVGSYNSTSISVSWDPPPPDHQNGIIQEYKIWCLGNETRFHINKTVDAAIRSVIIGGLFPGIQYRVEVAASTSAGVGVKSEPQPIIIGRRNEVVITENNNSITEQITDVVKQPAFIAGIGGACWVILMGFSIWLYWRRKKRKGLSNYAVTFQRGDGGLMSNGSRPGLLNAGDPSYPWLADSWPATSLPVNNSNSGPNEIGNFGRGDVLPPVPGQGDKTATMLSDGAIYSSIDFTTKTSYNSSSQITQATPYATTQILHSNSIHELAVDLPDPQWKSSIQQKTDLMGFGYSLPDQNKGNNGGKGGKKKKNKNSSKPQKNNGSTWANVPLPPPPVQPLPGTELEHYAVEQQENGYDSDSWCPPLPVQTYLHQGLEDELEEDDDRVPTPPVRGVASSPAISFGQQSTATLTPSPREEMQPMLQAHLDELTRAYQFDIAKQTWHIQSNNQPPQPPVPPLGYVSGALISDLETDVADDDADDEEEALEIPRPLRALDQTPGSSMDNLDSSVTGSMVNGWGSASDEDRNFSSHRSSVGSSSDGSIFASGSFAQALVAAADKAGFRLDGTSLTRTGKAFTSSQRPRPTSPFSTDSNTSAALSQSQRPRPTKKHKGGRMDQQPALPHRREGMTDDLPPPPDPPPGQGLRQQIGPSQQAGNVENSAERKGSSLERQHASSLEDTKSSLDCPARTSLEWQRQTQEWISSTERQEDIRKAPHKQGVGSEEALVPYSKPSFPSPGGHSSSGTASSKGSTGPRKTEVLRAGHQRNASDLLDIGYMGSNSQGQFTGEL
# T2: recombinant human ROBO4 extracellular region polypeptide rROBO4-ECD (human, UniProt Q8WZ75 28-461)
# T2 construct: Expressed from pEF6/V5-His-TOPO in FreeStyle 293-F cells; also called human ROBO4-ECD
# T2 sequence: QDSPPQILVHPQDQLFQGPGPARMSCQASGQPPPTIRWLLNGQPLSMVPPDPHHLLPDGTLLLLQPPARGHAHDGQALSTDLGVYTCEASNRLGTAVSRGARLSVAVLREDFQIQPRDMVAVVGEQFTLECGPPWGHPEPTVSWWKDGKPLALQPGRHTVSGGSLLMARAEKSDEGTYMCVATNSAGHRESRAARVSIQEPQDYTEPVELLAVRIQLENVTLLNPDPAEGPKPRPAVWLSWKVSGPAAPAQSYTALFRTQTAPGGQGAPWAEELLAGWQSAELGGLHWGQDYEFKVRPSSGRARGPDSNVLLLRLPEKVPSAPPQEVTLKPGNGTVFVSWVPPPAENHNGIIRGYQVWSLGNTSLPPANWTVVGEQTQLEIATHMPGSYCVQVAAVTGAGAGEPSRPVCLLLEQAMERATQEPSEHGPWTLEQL
# B1: humanized MAb1 antibody H-1143 (antibody, human IgG2, kappa, V domains shown)
# VH: EVQLVESGGGLVQPGGSLRLSCAASGFTFSTYAMSWVRQAPGKGLEWVATISQGGTYTYYPDSVKGRFTISRDNAKNTLYLQMNSLRAEDTAVYYCARLIYYDYLDYWGQGTLVTVSS
# VL: DIVMTQSPLSLPVTLGEPASISCRSSQSLENENKNLYLNWYLQKPGQSPQLLIYRVSNRFSGVPDRFSGSGSGTDFTLKISRVEAEDVGVYYCLQVTHVPWTFGPGTKVDIKR
# notes: Human IgG2 / kappa constant regions; also called hMAb1-H2-type heavy chain + hMAb1-L2-type light chain
# B2: humanized MAb1 antibody H-2143 (antibody, human IgG2, kappa, V domains shown)
# VH: B1 VH with G44R
# VL: B1 VL
# notes: Human IgG2 / kappa constant regions; also called hMAb1-H4-type heavy chain + hMAb1-L2-type light chain
# B3: humanized MAb1 antibody H-2140 (antibody, human IgG2, kappa, V domains shown)
# VH: B1 VH with G44R
# VL: B1 VL with E32S, K34G, L36T
# notes: Human IgG2 / kappa constant regions; also called hMAb1-H4-type heavy chain + hMAb1-L1-type light chain
# B4: humanized MAb1 antibody H-1140 (antibody, human IgG2, kappa, V domains shown)
# VH: B1 VH
# VL: B1 VL with E32S, K34G, L36T
# notes: Human IgG2 / kappa constant regions; also called hMAb1-H2-type heavy chain + hMAb1-L1-type light chain
# Target: T1, human ROBO2 (pCI-hROBO2-transfected …)
# Assay: flow cytometry (FC500), HEK293 cells transfected with pCI-hROBO2, FITC goat anti-human IgG Fc; control histogram IgG (human IgG)
row,binding result,Binder
1,no binding (tested: 10 µg/mL),B1
2,no binding (tested: 10 µg/mL),B2
3,no binding (tested: 10 µg/mL),B3

# Target: T2, recombinant human ROBO4 extracellular …
# Assay: SPR (Biacore 3000), antibody captured via anti-human IgG on CM5, rROBO4-ECD as analyte, 1:1 model
# Procedure: The dissociation constant between each antibody and rROBO4-ECD was determined with the antibody immobilized as a ligand and the antigen as an analyte using Biacore 3000 (manufactured by GE Healthcare Bio-Sciences Corp.). Approximately 80 RU of the antibody was bound via an anti-human IgG antibody (manufactured by GE Healthcare Bio-Sciences Corp.) immobilized on a sensor chip CM5 (manufactured by GE Healthcare Bio-Sciences Corp.) by an amine coupling method. The running buffer used was PBS containing 0.05% Surfactant P20. Dilution series solutions (0.1-200 nM) of the antigen were added at a flow rate of 30 μL/min. for 300 seconds onto the antibody-bound chip. Subsequently, a dissociation phase was monitored for 300 seconds. 3 M MgCl₂ was added thereto as a regeneration solution at a flow rate of 10 μL/min. for 30 seconds. Data was analyzed using the 1:1 binding model of analysis software (BIAevaluation Software, version 4.1) to calculate an association rate constant kon, a dissociation rate constant koff, and a dissociation constant (KD; KD=koff/kon).
row,Kd [nM],Binder
1,3.5,B1
2,1.7,B2
3,1.8,B3
4,3.9,B4

# Target: N-terminal FLAG-tagged human ROBO1 (pCI-FLAG-hROBO1-transfected HEK293 cells) (human, UniProt Q9Y6N7 58-1651)
# Sequence (Q9Y6N7 other isoform, or with tags, fused parts or gaps): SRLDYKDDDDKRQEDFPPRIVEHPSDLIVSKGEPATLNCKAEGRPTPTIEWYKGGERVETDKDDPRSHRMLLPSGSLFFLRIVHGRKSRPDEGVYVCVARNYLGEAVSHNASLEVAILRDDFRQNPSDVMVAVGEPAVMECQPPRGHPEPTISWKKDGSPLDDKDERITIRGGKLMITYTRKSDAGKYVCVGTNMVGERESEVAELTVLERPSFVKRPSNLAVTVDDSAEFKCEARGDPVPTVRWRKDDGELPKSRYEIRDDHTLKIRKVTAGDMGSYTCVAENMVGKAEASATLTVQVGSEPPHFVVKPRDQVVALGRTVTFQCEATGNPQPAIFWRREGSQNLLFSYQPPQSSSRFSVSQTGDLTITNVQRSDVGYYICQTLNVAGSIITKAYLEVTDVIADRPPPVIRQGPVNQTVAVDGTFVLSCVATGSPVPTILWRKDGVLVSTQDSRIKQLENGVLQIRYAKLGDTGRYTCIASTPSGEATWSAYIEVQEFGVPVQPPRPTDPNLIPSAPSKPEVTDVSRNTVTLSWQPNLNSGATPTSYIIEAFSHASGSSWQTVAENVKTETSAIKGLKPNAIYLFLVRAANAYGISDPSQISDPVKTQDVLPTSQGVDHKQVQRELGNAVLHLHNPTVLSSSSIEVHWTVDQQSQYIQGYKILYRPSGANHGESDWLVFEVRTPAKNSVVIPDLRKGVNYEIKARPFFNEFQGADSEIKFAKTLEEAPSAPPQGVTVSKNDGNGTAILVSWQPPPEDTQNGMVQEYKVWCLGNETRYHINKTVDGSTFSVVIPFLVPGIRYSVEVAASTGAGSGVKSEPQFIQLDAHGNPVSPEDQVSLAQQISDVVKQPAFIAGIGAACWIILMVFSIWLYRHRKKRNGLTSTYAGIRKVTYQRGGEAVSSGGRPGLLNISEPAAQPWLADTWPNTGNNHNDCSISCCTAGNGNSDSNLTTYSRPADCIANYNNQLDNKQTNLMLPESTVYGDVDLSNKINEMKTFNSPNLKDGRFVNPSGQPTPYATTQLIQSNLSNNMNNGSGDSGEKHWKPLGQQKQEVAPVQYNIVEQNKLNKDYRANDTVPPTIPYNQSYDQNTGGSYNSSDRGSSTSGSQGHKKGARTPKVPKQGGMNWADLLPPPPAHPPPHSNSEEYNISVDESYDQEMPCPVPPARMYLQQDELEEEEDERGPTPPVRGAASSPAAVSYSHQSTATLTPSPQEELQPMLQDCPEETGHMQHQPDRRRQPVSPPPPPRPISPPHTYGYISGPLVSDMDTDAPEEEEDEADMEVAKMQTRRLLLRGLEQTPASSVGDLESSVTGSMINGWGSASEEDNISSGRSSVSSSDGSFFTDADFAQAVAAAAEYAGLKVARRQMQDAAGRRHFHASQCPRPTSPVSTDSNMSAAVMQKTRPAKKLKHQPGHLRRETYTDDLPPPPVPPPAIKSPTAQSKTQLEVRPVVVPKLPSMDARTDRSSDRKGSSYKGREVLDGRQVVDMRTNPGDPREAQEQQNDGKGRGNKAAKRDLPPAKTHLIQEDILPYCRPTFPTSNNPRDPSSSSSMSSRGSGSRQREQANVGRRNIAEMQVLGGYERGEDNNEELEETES
# Assay: flow cytometry (FC500), HEK293 cells transfected with pCI-FLAG-hROBO1, FITC goat anti-human IgG Fc; control histogram IgG (human IgG)
row,binding result,Binder
1,no binding (tested: 10 µg/mL),B1
2,no binding (tested: 10 µg/mL),B2
3,no binding (tested: 10 µg/mL),B3
